Data as given in article PMC7706699 (Genes & Development, 2020).
Ends that are not written are not given here. * marks the point of attachment. Fluorescein(5-Mal) = O=C1OC2(c3ccc(O)cc3Oc3cc(O)ccc32)c2ccc(N3C(=O)CC(*)C3=O)cc21

Legend:
[1] = molecular target: human CPSF30 full-length (residues 1–244) Y127A mutant (human, UniProt O95639-2 1-244, Y127A); test: SEC
[2] = molecular target: human CPSF30 full-length (residues 1–244) Y151A mutant (human, UniProt O95639-2 1-244, Y151A); test: SEC
[3] = molecular target: human CPSF30 ZF4–ZF5 (residues 114–173) (human, UniProt O95639-2 114-173); test: crystal structure
[4] = molecular target: T1, human CPSF30 ZF2–C terminus (residues 62–244), wild type (human, UniProt O95639-2 62-244); test: SEC
[5] = molecular target: T2, human CPSF30 (residues 62–244) Y127A mutant (human, UniProt O95639-2 62-244, Y127A); test: SEC
[6] = molecular target: T3, human CPSF30 (residues 62–244) Y151A mutant (human, UniProt O95639-2 62-244, Y151A); test: SEC
[7] = molecular target: CPSF30 (full-length, wild type)–hFip1 (residues 79–200) complex (human, UniProt O95639-2 1-244; Q6UN15 79-200); test: SEC
[8] = molecular target: CPSF30 (full-length, Y127A)–hFip1 (residues 79–200) complex (human, UniProt O95639-2 1-244; Q6UN15 79-200, Y127A); test: SEC
[9] = molecular target: CPSF30 (full-length, Y151A)–hFip1 (residues 79–200) complex (human, UniProt O95639-2 1-244; Q6UN15 79-200, Y151A); test: SEC
[10] = molecular target: T1, human CPSF30 ZF2–C terminus (residues …); test: fluorescence polarisation
[11] = molecular target: T2, human CPSF30 (residues 62–244) Y127A …; test: fluorescence polarisation
[12] = molecular target: T3, human CPSF30 (residues 62–244) Y151A …; test: fluorescence polarisation

B1: hFip1 (residues 79–200) (domain or fragment, human, UniProt Q6UN15 79-200, looked up)
chain: TETEDDSDSDSDDDEDDVHVTIGDIKTGAPQYGSYGTAPVNLNIKTGGRVYGTTGTKVKGVDLDAPGSINGVPLLEVDLDSFEDKPWRKPGADLSDYFNYGFNEDTWKAYCEKQKRIRMGLE
stoichiometry N [1]: 1 hFip1 per CPSF30
stoichiometry N [2]: 1 hFip1 per CPSF30

B2: hFip1 (residues 159–200) (domain or fragment, human, UniProt Q6UN15 159-200, looked up)
chain: SFEDKPWRKPGADLSDYFNYGFNEDTWKAYCEKQKRIRMGLE
stoichiometry N [3]: 2 hFip1 per CPSF30
stoichiometry N [4]: 2 hFip1 per CPSF30
stoichiometry N [5]: 1 hFip1 per CPSF30
stoichiometry N [6]: 1 hFip1 per CPSF30

B3: catalytic module of human poly(A) polymerase α (residues 1–524) (domain or fragment, UniProt P51003 1-524, looked up)
chain: MPFPVTTQGSQQTQPPQKHYGITSPISLAAPKETDCVLTQKLIETLKPFGVFEEEEELQRRILILGKLNNLVKEWIREISESKNLPQSVIENVGGKIFTFGSYRLGVHTKGADIDALCVAPRHVDRSDFFTSFYDKLKLQEEVKDLRAVEEAFVPVIKLCFDGIEIDILFARLALQTIPEDLDLRDDSLLKNLDIRCIRSLNGCRVTDEILHLVPNIDNFRLTLRAIKLWAKRHNIYSNILGFLGGVSWAMLVARTCQLYPNAIASTLVHKFFLVFSKWEWPNPVLLKQPEECNLNLPVWDPRVNPSDRYHLMPIITPAYPQQNSTYNVSVSTRMVMVEEFKQGLAITDEILLSKAEWSKLFEAPNFFQKYKHYIVLLASAPTEKQRLEWVGLVESKIRILVGSLEKNEFITLAHVNPQSFPAPKENPDKEEFRTMWVIGLVFKKTENSENLSVDLTYDIQSFTDTVYRQAINSKMFEVDMKIAAMHVKRKQLHQLLPNHVLQKKKKHSTEGVKLTALNDSSLD
stoichiometry N [7]: 2 PAP per CPSF30–hFip1 complex
stoichiometry N [8]: 1 PAP per CPSF30–hFip1 complex
stoichiometry N [9]: 1 PAP per CPSF30–hFip1 complex

B4: hFip1 (residues 159–200) S159C/C189S mutant, FAM-labeled (domain or fragment, human, UniProt Q6UN15 159-200, looked up)
chain: C(Fluorescein(5-Mal))FEDKPWRKPGADLSDYFNYGFNEDTWKAYSEKQKRIRMGLE
Kd [10]: 0.69 ± 0.31 nM
Kd [11]: 220 ± 32 nM
Kd [12]: 1.8 ± 0.4 nM
